{"source": "patent US20060286609A1", "about": "(BIOCHECK, published 2006)", "binders": {"B1": {"name": "rabbit monoclonal anti-mouse Id1, clone #BCH-1/#37-2 (antibody, V domains shown)", "VH": "QSVEESGGRLVTPGTPLTLTCKVSGFDINSYAMDWFRQAPGKGLEWIGMMSTRGNTYYTSWAKGRFTISKTSSTTVDLKMTSLTTEDTATYFCARGGLWGPGTLVTVSS", "VL": "RVLTQTASPVSAAVGGTVTINCQASQSVYNGNRLGWYQLKPGQSPKELIHDASTLASGVPSRFRGSGSGTQFTLTINDVQCDDAATYYCVGSYACSTGDCNVFGGGTEVVVK", "notes": "Rabbit IgG from hybridoma, Protein G purified; also called m Id1 MoAb 37-2; Rabbit Monoclonal Anti-Mouse Id1 (#37-2)"}}, "key": {"[1]": {"target": "Human Id1: Histidine (human) (UniProt P41134)", "assay": "ELISA, coated antigen; relative to mouse Id1"}, "[2]": {"target": "Human Id1: Histidine (human) (UniProt P41134)", "assay": "ELISA, coated antigen, Ab 0.25 ug/ml"}, "human Id1 protein": {"target": "T1, human Id1 protein (human, UniProt P41134 1-155)", "T1 construct": "No tag stated; Western blots: endogenous in HeLa and other human cancer cell extracts; IHC: endogenous in human mammary tumor tissue", "T1 sequence": "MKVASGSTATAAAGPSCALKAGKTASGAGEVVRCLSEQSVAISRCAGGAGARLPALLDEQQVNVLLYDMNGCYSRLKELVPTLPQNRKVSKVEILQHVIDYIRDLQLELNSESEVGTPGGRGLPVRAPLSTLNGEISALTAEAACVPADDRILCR", "assay": "SPR (BIACORE 2000), antibody immobilized on CM5 chip, Id-1 as analyte, 1:1 Langmuir model", "procedure": "(§1) Antibodies were immobilized on CM5 sensor chips. All SPR (surface plasmon resonance) assays were carried out in a BIACORE 2000 instrument. A mouse monoclonal antibody was used as reference labeled at the 2nd channel (Fc2) of the chip. BCH-1#37-2 was immobilized on the 4th (Fc4) channel. Final conjugation of antibodies on chip surface was 1878 RU for BCH-1#37-2. Mouse Id-1 and human Id-1 were applied as mobile analytes. The binding assays were carried out in HBS-P buffer (10 mM HEPES, pH 7.4, containing 150 mM sodium chloride, 0.005% surfactant P-20 detergent and 0.12% glycerol). Kinetics were determined with 8 different analyte concentrations ranging from […] to 573 nM. For analyses, 125 μl of analyte were injected (Kinject protocol) at 30 μl/min and the dissociation lasted for 240 seconds at the same flow rate. The surface was regenerated by washing with 50 μl solution of 100 mM glycine and 100 mM of HCl, pH 1.81, at 60 μl/min and the extra cleaning protocol was followed. The kinetic analyses of sensograms were based on the Langmuir (1:1) binding model. Both association rate constant and dissociation rate constants for the interaction of mouse Id-1 and human Id-1 with the immobilized antibodies were determined from the analysis of sensograms using the Biaevaluation software, version 3.0. […]"}, "mouse Id1 protein": {"target": "T2, mouse Id1 protein (mouse, UniProt P20067-2 1-148)", "T2 construct": "No tag stated; Western blots: expressed in transfected HeLa cells (whole cell extract on SDS gel); IHC: endogenous in mouse mammary tumor tissue", "T2 sequence": "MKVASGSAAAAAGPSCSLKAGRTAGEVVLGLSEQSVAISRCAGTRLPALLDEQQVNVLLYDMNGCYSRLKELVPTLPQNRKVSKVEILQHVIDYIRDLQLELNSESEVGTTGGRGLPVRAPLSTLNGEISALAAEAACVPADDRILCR", "assay": "SPR (BIACORE 2000), antibody immobilized on CM5 chip, Id-1 as analyte, 1:1 Langmuir model", "procedure": "as §1"}, "Human Id3: Histidine": {"target": "T3, Human Id3: Histidine (human, UniProt Q02535 1-119, limits assumed)", "T3 construct": "E. coli fusion protein (vector pGW07); also called h-Id3: His; not shown: His-tag", "T3 sequence (looked up)": "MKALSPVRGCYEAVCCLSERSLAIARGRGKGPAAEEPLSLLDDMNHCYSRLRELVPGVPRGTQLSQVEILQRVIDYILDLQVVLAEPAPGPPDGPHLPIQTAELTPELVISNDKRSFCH", "assay": "ELISA, coated antigen, Ab 1.00 ug/ml", "procedure": "(§2) Incubate plates at 2-8° C. overnight (16-24 hours). [0145] 11. Shake off the BSA solution. [0146] 12. Dispense 250 μL of 2.5% sucrose solution into each well. [0147] 13. Incubate plates at 2-8° C. for 4 hours. [0148] 14. Shake off sucrose solution. [0149] 15. Dry in vacuum at room temperature overnight. Screening Method [0150] 1. Dispense 100 μL of antibody diluent, diluted rabbit polyclonal anti-Id1 into appropriate wells. […] 2. Incubate at room temperature with mechanical shaking at 750 rpm for 90 minutes. [0152] 3. Remove the incubation mixture by flicking plate content into an appropriate waste container, followed by rinsing the wells 5 times with distilled water. […] 4. Strike the wells sharply onto absorbent paper or paper towels to remove all residual water droplets. [0154] 5. Dispense 100 μL of Goat Anti-Rabbit IgG-HRP Conjugate Reagent into each well. Gently mix for 5 seconds. [0155] 6. Incubate at room temperature with mechanical shaking at 750 rpm for 90 minutes. […] 7. Repeat procedures 3 and 4. [0157] 8. Dispense 100 μL of TMB Reagent into each well. Gently mix for 5 seconds. [0158] 9. Incubate at room temperature with mechanical shaking at 750 rpm for 20 minutes. [0159] 10. Add 100 μL of Stop Solution (1N HCl) into each well. [0160] 11. Gently mix for 10 seconds to ensure a complete mixing. […] 12. Read optical density (absorbance) at 450 nm. Results from this assay were used to select the rabbit sera with the highest antibodies titer that selectively reacts with mouse Id1 or human Id1 or both.\n(§3) A comparison was carried out between the reactivity of the rabbit monoclonal anti-mouse Id1, clone #BCH-1/#37-2, of this invention and the mouse monoclonal anti-mouse/human Id1 from BD Pharmingen with the following antigens prepared in Example 5: mouse Id1:His, human Id1:His, human Id2:His, human Id3:His, and GST. These antigens and protein were used to coat the wells.\n(§4) Materials and methods were those described in Example 9 except (a) Pharmingen's mouse monoclonal anti-mouse Id1 was used in addition to the rabbit monoclonal anti-mouse Id1 (Example 10), and (b) goat anti-mouse IgG-HRP conjugate was used to process the wells treated with the Pharmingen monoclonal antibody and polyclonal goat anti-rabbit IgG-HRP conjugate was used to process wells treated with rabbit monoclonal anti-mouse Id1."}, "Human Id2: Histidine": {"target": "T4, Human Id2: Histidine (human, UniProt Q02363 1-134, limits assumed)", "T4 construct": "E. coli fusion protein (vector pGW07); also called h-Id2: His; not shown: His-tag", "T4 sequence (looked up)": "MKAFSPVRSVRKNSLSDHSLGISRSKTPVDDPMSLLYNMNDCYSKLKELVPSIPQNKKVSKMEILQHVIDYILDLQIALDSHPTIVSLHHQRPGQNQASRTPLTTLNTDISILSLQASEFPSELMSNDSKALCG", "assay": "ELISA, coated antigen, Ab 1.00 ug/ml", "procedure": "as §2, §3, §4"}, "Mouse Id1: Histidine": {"target": "T5, Mouse Id1: Histidine (mouse, UniProt P20067-2 1-148)", "T5 construct": "E. coli fusion protein (vector pGW07); also called m-Id1-His; not shown: His-tag", "T5 sequence": "T2 sequence", "assay": "ELISA, coated antigen, Ab 1.00 ug/ml", "procedure": "as §2, §3, §4"}, "[3]": {"target": "T6, glutathione S-transferase (GST) (UniProt P08515 1-218 = GST)", "T6 construct": "Coated on wells as control for the fusion partner of the immunogen", "T6 sequence (P08515 whole entry, the tested form may be a part)": "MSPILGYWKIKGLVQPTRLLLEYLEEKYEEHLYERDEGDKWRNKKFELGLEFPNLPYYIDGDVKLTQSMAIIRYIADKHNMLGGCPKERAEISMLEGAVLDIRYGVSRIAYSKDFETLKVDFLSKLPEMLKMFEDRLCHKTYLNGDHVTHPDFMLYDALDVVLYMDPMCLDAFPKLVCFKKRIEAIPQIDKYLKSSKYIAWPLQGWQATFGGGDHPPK", "assay": "ELISA, coated antigen, Ab 1.00 ug/ml", "procedure": "as §2, §3, §4"}}, "data": [{"binder": "B1", "values": [{"measurement": "Cross-reactivity (%)", "setting": "[1]", "value": "< 1", "unit": "%"}, {"measurement": "A450", "setting": "[2]", "value": 0.07, "unit": "A450"}, {"measurement": "Ka", "setting": "human Id1 protein", "value": "2.9e+09", "unit": "M⁻¹"}, {"measurement": "Ka", "setting": "mouse Id1 protein", "value": "2.9e+11", "unit": "M⁻¹"}, {"measurement": "A450", "setting": "Human Id3: Histidine", "value": 0.063, "unit": "A450"}, {"measurement": "A450", "setting": "Human Id2: Histidine", "value": 0.053, "unit": "A450"}, {"measurement": "A450", "setting": "Mouse Id1: Histidine", "value": 2.88, "unit": "A450"}, {"measurement": "A450", "setting": "[3]", "value": 0.062, "unit": "A450"}]}]}
